Test results reported in patent US20240245800A1, “HIGHLY SPECIFIC RABBIT SINGLE -DOMAIN ANTIBODIES FOR DRUG DELIVERY IN IMMUNOTHERAPY APPLICATIONS” (TECHNOPHAGE, INVESTIGAÇÃO E DESENVOLVIMENTO EM …, priority 2021, published 2024).

T1: Human Topoisomerase I (Homo sapiens, UniProt P11387)
T1 construct: purchased Topogen
T1 sequence (P11387 1-765): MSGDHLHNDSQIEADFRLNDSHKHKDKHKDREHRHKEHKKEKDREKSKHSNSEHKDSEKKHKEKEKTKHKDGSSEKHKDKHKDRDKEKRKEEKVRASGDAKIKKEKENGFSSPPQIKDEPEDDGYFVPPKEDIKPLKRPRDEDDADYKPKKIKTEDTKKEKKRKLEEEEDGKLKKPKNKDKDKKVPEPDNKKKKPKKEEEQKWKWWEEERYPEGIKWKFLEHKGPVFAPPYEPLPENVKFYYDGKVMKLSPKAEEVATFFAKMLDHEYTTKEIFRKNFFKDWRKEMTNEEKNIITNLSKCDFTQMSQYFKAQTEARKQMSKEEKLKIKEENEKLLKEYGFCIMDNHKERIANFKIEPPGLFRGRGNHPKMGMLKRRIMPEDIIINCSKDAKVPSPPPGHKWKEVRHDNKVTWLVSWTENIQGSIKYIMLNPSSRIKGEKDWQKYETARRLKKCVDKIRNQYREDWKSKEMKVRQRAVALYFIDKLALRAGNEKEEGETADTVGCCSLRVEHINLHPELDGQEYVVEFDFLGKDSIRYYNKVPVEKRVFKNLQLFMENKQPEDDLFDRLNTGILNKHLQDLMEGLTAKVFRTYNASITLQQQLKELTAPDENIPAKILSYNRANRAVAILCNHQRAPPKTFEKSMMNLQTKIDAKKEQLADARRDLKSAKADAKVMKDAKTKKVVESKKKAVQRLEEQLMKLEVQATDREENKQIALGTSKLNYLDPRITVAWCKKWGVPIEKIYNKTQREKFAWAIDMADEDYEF

B1: A12: rabbit derived anti-cNHL VL sdAb clone, SEQ. ID. 1 (antibody, listed as Oryctolagus cuniculus, V domains shown)
VL: ELVMTQTPSSVSAAVGGTATIDCQSTKSVYNNNALSWYQQKPGQPPKLLIYRASTLTSGVPSRFSGSGSGTQFTLTINDVQCDDAATYYCQGGISGSSDAPFGGGTEVVVK
B2: C8: rabbit derived anti-cNHL VL sdAb clone, SEQ. ID. 2 (antibody, listed as Oryctolagus cuniculus, V domains shown)
VL: ELVMTQTPSSVSAAVGGTVTINCRASEDIESYLAWYQQKPGQPPKRLIYGASNLASGVSSRFKGSGSGTDFTLTISDLECADAATYYCQCIVGGSTYGNVFGGGTELEIL
B3: E2: rabbit derived anti-cNHL VL sdAb clone, SEQ. ID. 5 (antibody, listed as Oryctolagus cuniculus, V domains shown)
VL: ELDLTQTPPSLSASVGGTVTINCQASESISNYLAWYQQKPGQPPKLLIYGASNLESGVPSRFRGSGSGTEFTLTISDMKAEDAATFYCQSGYYTAGDLTFGAGTNVEIK
B4: E1: rabbit derived anti-cNHL VL sdAb clone, SEQ. ID. 4 (antibody, listed as Oryctolagus cuniculus, V domains shown)
VL: ELVMTQTPSPVSAAVGGTVTIACQSSQSVYSGTLLSWYQQKPGQSPKLLIHEASTLASGVPSRFKGSGSGTQFTLTISDLECADAATYYCLGGFDDDADNAFGGGTELEIL
B5: B12: rabbit derived anti-cNHL VL sdAb clone, SEQ. ID. 6 (antibody, listed as Oryctolagus cuniculus, V domains shown)
VL: ELVLTQTPASVEAAVGGTVTIKCQASQSIGSYLAWYQQKPGQPPKLLIYGASTLASGVPSRFSGSRSDTQFSLTISDLECADAATYYCQGYYYSDSSSYVNTFGGGTEVVVK
B6: RG22: rabbit derived BBB targeting VL sdAb clone, SEQ. ID 44 to 48 series; ^99mTc(CO)3-labelled in Table 1 (antibody, listed as Oryctolagus cuniculus, V domains shown)
VL: ELVLTQTPASVEAAVGGTVTINCQASQSVYNNKNLAWYQQKPGQPPKLLIYRASTLASGVPSRFSGSGSGTQFTLTISGAQCDDAATYYCQGEFSCSSGDCIAFGGGTEVVVK
modifications: 99mTc(CO)3 label
B7: RG23: rabbit derived BBB targeting VL sdAb clone, SEQ. ID 44 to 48 series; ^99mTc(CO)3-labelled in Table 1 (antibody, listed as Oryctolagus cuniculus, V domains shown)
VL: ELVMTQTPASVSEPVGGTVTIKCQASQSIGNALAWYQQKPGQPPKLLIYGASNLESGVPSRFKGSGSGTEFTLTISDLECADAATYYCQSYYYSSSSSYGSYAFGGGTEVVVK
modifications: 99mTc(CO)3 label
B8: RG3: rabbit derived BBB targeting VL sdAb clone, SEQ. ID 44; ^99mTc(CO)3-labelled in Table 1 (antibody, listed as Oryctolagus cuniculus, V domains shown)
VL: ELVMTQTPSPVSAAMGGTVSISCQSSKSVANNNELSWYQQKPGQPPKLLIYEASKLASGVPSRFKGSGSGTQFTLTISDVQCDDAATYYCLGDYYSSSDNAFGGGTEVVVK
modifications: 99mTc(CO)3 radiolabel

These molecules were tested on CLBL-1 cell extracts (assay: ELISA screening of anti-cNHL VL sdAb clones). Details: clone supernatants, CLBL-1 extracts.
Assay type: binding, canine
Procedure: After the phage display selection, in order to express and select the best anti-cNHL VL sdAbs, phagemid DNA derived from the in vivo output selection was cloned into a PT7-PL vector and transformed into an E. coli strain BL21. Then, individual clones were auto induced, and the supernatant tested in ELISA assays against CLBL-1 and Jurkat cell extracts. To select the best lead candidates, three parameters were evaluated: binding against cNHL, expression yields, and unspecific binding. […] After selection, to characterize the selected clones, the 43 best lead candidates were analysed by sanger sequencing (FIG. 6B). To get further insights of the enriched sequences during the in vivo phage display selection, we performed next generation sequencing (NGS) of the biopanning repertoires. NGS allows massive sequence analysis of the panning population, enabling a genomic assessment of the library diversity and frequency of each clone. Two samples were sequenced: biopanning from the CLBL-1 tumour models and initial immune VL sdAb cNHL library (FIG. 7). Upon bioinformatic analysis of the NGS data, we were able to determine the diversity of each sample and identify the most represented clones. A total of 34880 sequences were obtained for the biopanning from the CLBL-1 tumours. The NHL library obtained a total of 48864 sequences. The number of singletons, consisting of the sequences with a single occurrence, varied between samples, ranging from 76.8% in the library, and 33.3% in the in vivo biopanning from the CLBL-1. Through the comparison of the sequence prevalence between the biopannings and the library, we were able to verify that the number of occurrences in each sequence was higher in the biopanning clones. […] By comparing ELISA data, sanger sequencing and NGS analysis, the six best clones (A12, C8, C5, E1, E2, and B12) were produced and purified. Due to its binding characteristics and production properties, C5 sdAb clone was chosen to be thoroughly characterized and used in the development of the proposed ADC.
To express and select anti-NHL-sdAbs, phagemid DNA encoding selected anti-cNHL sdAbs was cloned into PT7-PL (PT7-peptide leader) vector and transformed into E. coli strain BL21. Individual colonies were inoculated in 100 μl of Super Broth (SB) medium containing Overnight Express™ Autoinduction System (Novagen®) and 100 μg/ml of ampicillin and incubated overnight at 30° C. Next day, 40 μl of BugBuster (Roche) containing anti-protease cocktail-EDTA free inhibitors (Roche) were added and incubated for 30 min at 4° C. Then, plates were centrifuged at 1200 rpm and the supernatant was tested in ELISA assays. Three different conditions were assessed: binding to the sdAbs to the antigen, expression level and unspecific binding. After coating the wells with CLBL-1 cell extracts or Raji cell extracts for 1 h at 37° C., wells were blocked with 3% BSA in PBS. Then, wells were washed with PBS and clones were added and incubated for 1 h, at 37° C. Next, plates were washed and incubated with anti-HA HRP antibody (Roche). Finally, after 1 h incubation, plates were washed and ABTS (Roche) was added and optical density at 405 nm was measured at different time points. To evaluate the expression level, the same protocol was applied, excluding antigen coating.
For unspecific binding, antigen was replaced by 3% BSA. Rabbit sera and anti-CD20 antibody were used as positive controls. BL21 cell extracts were used as negative controls. In the end, the ten best individual clones were sequenced at Eurofins company. Sequence analysis was performed using the Vector Nti software (Invitrogen). The antibody frameworks, CDRs and the amino acid numbering and sequences followed the rules described by Kabat et al. (1991) Sequences of proteins of immunological interest. Bethesda, MD, U.S. Dept. of Health and Human Services, Public Health Service, National Institutes of Health. […]

Row | Molecule | ELISA signal against NHL cells
1 | B1 | best results
2 | B2 | best results
3 | B3 | best results
4 | B4 | best results
5 | B5 | best results

What follows are molecules tested on bEnd.3 cell monolayer (assay: In vitro BEB model translocation of sdAbs (western blot)). Details: 15 μg sdAb at apex, 90 min, WB.
Assay type: in vitro ADME, mouse
Procedure: FIG. 16A 15 μg of each purified sdAb was added to the apex of the transwell and incubated for 90 min.
FIG. 16B Following incubation period, all volumes were collected from the apex and the base and analysed by WB with anti-HA antibody.
To determine the in vitro BEB translocation efficiency of the selected VL sdAb, 15 μg of each purified antibody was added to the apex of the transwell and incubated for 15 and 90 min. The incubation time and sdAb concentration were selected based on previous optimization assays (data not shown). Following incubation, the cells were washed once with PBS and three times with TB. Evaluation of the translocation efficiency of each VL sdAb was assessed by running […] of the recovered volume from the apex and the base on a 15% SDS-PAGE acrylamide gel followed by WB analysis with HRP-conjugated […] antibody at 1:3000 (Roche). As a positive control, 100 ng of each purified VL sdAb was used. The FC5 VHH was used as a positive control. The same procedure was performed to evaluate the BEB crossing properties of each purified rabbit serum, but the incubation was performed for 15 and 60 min and the detection was performed with goat-α anti-rabbit IgG-Fc specific HRP at 1:10,000. Chemiluminescence was detected using the Chemidoc XRS+System (Bio-rad).

Row | Molecule | in vitro BEB translocation
6 | B6 | increased in vitro BEB-crossing efficiency
7 | B7 | increased in vitro BEB-crossing efficiency
8 | B8 | increased in vitro BEB-crossing efficiency

What follows are molecules tested against T1, Human Topoisomerase I (assay: DNA Topo I activity assay (Human Topoisomerase I Assay Kit)). Details: 10 U Topo I, supercoiled DNA, agarose gel.
Assay type: biochemical
Procedure: FIG. 11—Cytotoxic effects of C5-DAB-SN-38. To determine the effect of C5-DAB-SN-38 on CLBL-1 and Jurkat cells, a cell viability assay was performed using the WST-1 reagent. 6×10^4 cells were seeded and treated with increasing amounts of compound. After 48 h treatment, cell viability was assessed. […] B) On the other hand, ADC had no effect on Jurkat cells, proving the specificity of the ADC. C5 was used as control. Best-fit EC50 values of each formulation were calculated using GraphPad Prism software (version 9.2.0, San Diego, CA, USA) using the log (inhibitor) vs response (variable slope) function. D) Effects of C5-DAB-SN-38 on DNA TopoI activity. To evaluate the effects of C5-DAB-SN-38 on DNA Topo I, we evaluated its activity using the Human Topoisomerase I Assay Kit. After incubation of C5-DAB-SN-38 with 1× reaction buffer and 10 U of Topo I for 1 h at 37° C., the supercoiled DNA was added. To stop the reaction, stop loading buffer was added. DNA TopoI activity was visualized by 1% agarose gel electrophoresis […] with ethidium bromide. Relaxed DNA indicated TopoI activity while supercoiled DNA indicated an inhibition. […] Relaxed DNA and supercoiled DNA were used as positive/negative controls. C5 and SN-38 were also used as controls.
Topo I activity on VL-DAB-SN38 was determined using the Human Topoisomerase I Assay Kit (Topogen, CO, USA) according to the manufacturer's instructions. […]

Row | Molecule | effect on DNA Topo I activity
9 | CCc1c2c(nc3ccc(O)cc13)-c1cc3c(c(=O)n1C2)COC(=O)[C@]3(O)CC [SN-38, reference compound] | inhibited
